Substitutions are numbered along the chain they refer to.

In test [1] the target is T1, binding between PPARγ2 and 14-3-3γ (Homo sapiens, UniProt P37231).
T1 construct: expressed in transfected cells; host or cells: HEK-293T
T1 sequence (P37231 1-505): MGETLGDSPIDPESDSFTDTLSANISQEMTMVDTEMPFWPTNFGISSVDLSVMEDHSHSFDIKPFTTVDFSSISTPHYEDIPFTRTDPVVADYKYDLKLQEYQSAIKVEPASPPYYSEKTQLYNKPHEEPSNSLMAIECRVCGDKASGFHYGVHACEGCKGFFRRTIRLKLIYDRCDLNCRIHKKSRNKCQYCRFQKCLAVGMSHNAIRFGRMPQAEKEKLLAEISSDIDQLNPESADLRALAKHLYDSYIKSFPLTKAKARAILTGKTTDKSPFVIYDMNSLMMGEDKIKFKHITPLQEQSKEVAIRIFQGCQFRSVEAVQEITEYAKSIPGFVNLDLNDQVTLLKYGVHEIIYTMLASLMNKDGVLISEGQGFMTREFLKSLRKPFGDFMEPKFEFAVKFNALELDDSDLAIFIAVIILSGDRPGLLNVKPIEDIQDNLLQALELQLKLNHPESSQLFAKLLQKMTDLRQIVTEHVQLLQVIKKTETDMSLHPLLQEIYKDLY
The test is described as follows: GST-pull down assay, binding between PPARγ2 and 14-3-3γ (HEK-293T). How it is done:
After transfection, […], washed with ice-cold PBS, and lysed using 500 μl/well of a lysis buffer (150 mM NaCl, 1 mM EDTA, 1% Nonidet P-40, 5% glycerol, 25 mM tris-HCl, pH 7.5, protease inhibitor added), and the lysed cells were centrifuged at 10,000×g and 4° C. for 10 minutes to extract proteins. Thereafter, 1,000 μg of the proteins was reacted with 20 μl of glutathione Sepharose 4B beads (GE Healthcare, Buckinghamshire, UK) for 6 hours, and then washing of the beads with 1 ml of ice-cold PBS was repeated 5 times, and the beads were boiled at 100° C. for 10 minutes, followed by 10% SDS-PAGE gel separation and western blotting. A ratio of GST antibodies (Santa Cruz) to Myc antibodies (self-production) was 1:3000. The detection of each protein was performed using West Pico ECL (Thermo scientific, Rockford, Ill.) and identified in a darkroom.
After transfection, […], washed with ice-cold PBS, and lysed using 500 μl/well of a lysis buffer (150 mM NaCl, 1 mM EDTA, 1% Nonidet P-40, 5% glycerol, 25 mM tris-HCl, pH 7.5, protease inhibitor added), and the lysed cells were centrifuged at 10,000×g and 4° C. for 10 minutes to extract proteins. […]

Another test deals with SREBP-1c protein. Briefly: SREBP-1c protein expression by western blotting in HepG2 cells. The test is classed as cell-based. To be noted: HepG2, overexpression, 200 μM oleic acid 72 hours, FIG. 7D. How it is done:
In addition, HepG2 cells were seeded in a 6-well plate at a density of 5×10^5 cells per each well, and then transfected with HA-14-3-3β DNA (1 μg) or HA-14-3-3γ DNA (1 μg) using an E-fection plus reagent (Lugen). A ratio of DNA to the E-fection plus reagent was 1:2, and this method was performed according to a manufacturer's manual. After transfection, the cells were treated with 200 μM of oleic acid (OA) for 72 hours, washed with ice-cold PBS, and lysed with 80 μl/well of a lysis buffer (150 mM NaCl, 1 mM EDTA, 1% Nonidet P-40, 5% glycerol, 25 mM tris-HCl, pH 7.5, protease inhibitor added), the lysed cells were centrifuged at 10,000×g and 4° C. for 10 minutes to extract proteins, and 30 μg of the proteins was separated on a 10% SDS-PAGE gel and identified using each of the antibodies (HA, SREBP-1c: Santa Cruz) by western blotting, and all antibodies were used in a ratio of 1:3000.
Background: Immunoblotting shows a protein as a band on a membrane.

Another test addresses T2, PPARγ2 S273A mutant (Homo sapiens, UniProt P37231, S273A).
T2 construct: expressed in transfected cells; host or cells: HEK-293T
T2 sequence (P37231 1-505 S273A): T1 sequence (P37231 1-505) with S273A
Briefly: aP2 promoter luciferase reporter with PPARγ2 S273A mutant in HEK-293T cells. The test is classed as cell-based. To be noted: overexpression of 14-3-3β or 14-3-3γ, FIG. 4C/4D. How it is done: In addition, HEK-293T cells were seeded in a 12-well plate at a density of 1×10^5 cells per each well, and then transfected with an aP2 promoter construct (0.5 μg), Flag-PPARγ2 (S112A) DNA (0.5 μg) or Flag-PPARγ2 (S273A) DNA (0.5 μg), and mGST-14-3-3β DNA (0.5 μg) or mGST-14-3-3γ DNA (0.5 μg) using an E-fection plus reagent (Lugen). A ratio of DNA to the E-fection plus reagent was 1:2, and this method was performed according to a manufacturer's manual. The corresponding cells were washed with ice-cold PBS, and lysed using 80 μl/well of a reporter lysis buffer (Promega, Madison, Wis.), and the lysed cells were centrifuged at 10,000×g and 4° C. for 10 minutes to collect a supernatant, and luciferase activity was measured. As an instrument, Luminometer 20/20n (Turner Biosystems, Sunnyvale, Calif.) was used. For normalization, the cells were cotransfected with pSV40-β-galactosidase. For the collected supernatant, β-galactosidase activity was measured and the luciferase activity was revised, and the obtained values were plotted. At this time, a β-galactosidase enzyme analysis system (Promega, Madison, Wis.) was used, and analysis was performed using a DU530 spectrophotometer (Beckman Instruments, Palo Alto, Calif.).

With “14-3-3β: 14-3-3 isoform protein overexpressed by DNA transfection; increases the transcriptional activity of PPARγ2 by binding to PPARγ2”, in test [1] (expression amount of 14-3-3β increased (HA-14-3-3β DNA 2 and 4 μg), FIG. 5B), the “binding between 14-3-3γ and PPARγ2” value is on record as “reduced”. In the test with SREBP-1c protein, the “expression of the SREBP-1c protein” value is listed as “increased”. For the same molecule, the “transcriptional activity of PPARγ2 S273A mutant” value with PPARγ2 S273A mutant is “no change”.
In the case of `CCCCCCCC/C=C\CCCCCCCC(=O)O` [oleic acid], the “binding between PPARγ2 and 14-3-3γ” value in test [1] (200 μM oleic acid 72 hours, FIG. 8B) was “reduced”.
Regarding “14-3-3γ: 14-3-3 isoform protein overexpressed by DNA transfection; decreases the transcriptional activity of PPARγ2; proposed active ingredient”, in the test on SREBP-1c protein, the “expression of the SREBP-1c protein” value is “reduced”. Moreover, the “transcriptional activity of PPARγ2 S273A mutant” value with PPARγ2 S273A mutant is “no change”.

(Values after patent publication US10688197B2, “Non-alcoholic fatty liver regulator 14-3-3 protein” (Korea University Research and Business Foundation, priority 2015, dated 2020).)
